Measured values as given in publication PMC5797941.

Biological target: T1, His6-SlyA (Escherichia coli K-12 MG1655?) (UniProt P0A8W3)
T1 sequence: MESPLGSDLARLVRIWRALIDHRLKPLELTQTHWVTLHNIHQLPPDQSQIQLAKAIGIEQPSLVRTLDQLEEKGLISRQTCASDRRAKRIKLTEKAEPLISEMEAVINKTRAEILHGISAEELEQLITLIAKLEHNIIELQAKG
Assay: EMSA
Details: 20 µl: 10 mM Tris/HCl pH 7.5, 50 mM KCl, 1 mM DTT, poly(dI-dC) (1 µg), ~1 nM biotin-DNA, 0-500 nM SlyA, 25 °C, 30 min

Sequence	binding	DNA binding
GATGGGGATAAGCAGAGCGCTTATCCCCGGCAAAGAGCAATAACCCTTCTGCGATCCCTGCCGCCTTCGTCAAAAGTATCGACGGGGATCGCTACCAGATTAACCCGAATCGGCATGGAGTCAACGACGG (double strand) [sgcA-sgcQ intergenic region]	no binding	–
GATGTATGTTCTAATAAAATAGATTGGGTGGGTTGTATATTGACGTTAGTATAAATAGTATTAATGCCGCTTGCATGAATCAAGCAAAATTTATTTATATTAGTAATATGTATTTAATTAATAAATACATACATTATTTTTATGATTAAGGATAATCAATAATTAAAACAGGAAGTTCT (double strand) [gspA-gspC intergenic region]	–	binds
GCAAGCACCTTAAAATCACCATCATACACTAAATCAGTAAGTTGGCAGCATTACCGAAATCCCCATCCTTTAGGGCAGTGAGGATGTCAATAATAGCAGACCACATCATGAGTCATTCTGACCGACACATGCCAGAAGCAGAGGCTCCATCCCATTTTATACCTACCTTATAACACTTAGAAAAACAACATGTTAAAAATGTCTATTGGAAACAATTTTATTTCCAATTGTAATGATAACCATTCTCATATTAATATGACTACGTGATAATTAACTTTTGATGCACTCCGC (double strand) [fecI-insA-7 intergenic region]	–	binds
TGTTGCTAATAGTTAAATCGCGAATCATAAAAAGCAAAGGATCTTTTAACGAAATGTTAACTATGCGATCTGTATAGCAACTGCGGAAAACATTAATGCACTGATAAATAATGATTTATAAAAATAGGGTGCGAAATCCGTCACAGTTCAAACATACAAAATTTGTGATTTTACTTAACTATTGTGTAACTTTCATAAAACAATGTGATTCGTGTTTTTAATTAATTCACGAAAACTGGAATCGTAAAGGTGATGAC (double strand) [paaA-paaZ intergenic region]	–	binds
